Results from the supplement of paper PMC7877785.
± gives the uncertainty stated by the source.

Test: self-splicing fitness, log relative to wild type (ln ratio); higher = more splicing; Tetrahymena group I intron in knt gene, E. coli kanamycin selection, DiMSum; sequences stand for … in CUCUCU…GGAGGGAAAAGUUAUCAGGCAUGCACCUGGUAGCUAGUCUUUAAACCAAUAGAUUGCAUCGGUUUAAAAGGCAAGACCGUCAAAUUGCGGGAAAGGGGUCAACAGCCGUUCAGUACCAAGUCUCAGGGGAAACUUUGAGAUGGCCUUGCAAAGGGUAUGGUAAUAAGCUGACGGACAUGGUCCUAACCACGCAGCCAAGUCCUAAGUCAACAGAUCUUCUGUUGAUAUGGAUGCAGUUCACAGACUAAAUGUCGGUCGGGGAAGAUGUAUUCUUCUCAUAAGAUAUAGUCGGACCUCUCCUUAAUGGGAGCUAGCGGAUGAAGUGAUGCAACACUGGAGCCGCUGGGAACUAAUUUGUAUGCGAAAGUAUAUUGAUUAGUUUUGGAGUACUCGUGGUCG
In short: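 Pooled colonies went to amplicon sequencing on an Illumina HiSeq 2500 after six replicate transformations. The plates were LB agar with 100 μg/mL carbenicillin, 50 μM IPTG and 0.2% rhamnose, with or without 25 μg/mL kanamycin, incubated overnight at 37°C or 30°C. The E. coli BL21(DE3) library had all eight P1ex-region intron nucleotides randomised, the intron placed in the knt kanamycin-resistance gene on pET-22b(+). DiMSum fitness is the error-weighted combination of replicate fold changes, kanamycin against none, normalised to wild type.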

| Sequence | self-splicing fitness (ln) (30 °C) | self-splicing fitness (ln) (37 °C) |
| --- | --- | --- |
| ACGAAGCAAUAUUACGGCCU | 0.00118 ± 0.097 | 0.0498 ± 0.13 |
| GGCAAGCAAUAUUACGGGCA | -0.0236 ± 0.092 | 0.138 ± 0.1 |
| UUCUAGCAAUAUUACGCGCA | -0.451 ± 0.088 | -0.191 ± 0.097 |
| AAUCAGCAAUAUUACGCUAU | -0.347 ± 0.084 | 0.0833 ± 0.12 |
| AUCUAGCAAUAUUACGUUCU | -1.52 ± 0.09 | -0.607 ± 0.11 |
| CGGGAGCAAUAUUACGUCCU | -2.54 ± 0.25 |  |
| CCUCAGCAAUAUUACGUGGC | -3.94 ± 0.22 | -3.01 ± 0.24 |
| GCGAAGCAAUAUUACGUCCA | -1.16 ± 0.086 | -0.269 ± 0.11 |
| CUAUAGCAAUAUUACGACUA | -1.87 ± 0.47 |  |
| UGGUAGCAAUAUUACGAUUG | -0.422 ± 0.05 | 0.168 ± 0.073 |
| AAUGAGCAAUAUUACGUACG | -3 ± 0.26 | -2.32 ± 0.24 |
| GCACAGCAAUAUUACGCGCA | -0.993 ± 0.099 | -0.327 ± 0.093 |
| ACGCAGCAAUAUUACGGGUG | -1.56 ± 0.068 | -0.519 ± 0.076 |
| CCUUAGCAAUAUUACGUGUU | -4.69 ± 0.32 | -3.25 ± 0.21 |
| AACUAGCAAUAUUACGCGCC | -1.34 ± 0.12 | -0.314 ± 0.12 |
| GGUCAGCAAUAUUACGAGGG |  | -2.35 ± 0.25 |
| GCAAAGCAAUAUUACGGCCC | -0.121 ± 0.18 | -0.618 ± 0.27 |
| AUUCAGCAAUAUUACGCCCA | -1.11 ± 0.18 | -0.0785 ± 0.23 |
| UAGCAGCAAUAUUACGGUUG | -1.17 ± 0.092 | -0.442 ± 0.12 |
| CCAGAGCAAUAUUACGUUCU | -3.71 ± 0.31 | -1.84 ± 0.31 |
| GAAUAGCAAUAUUACGCAAU | -2.31 ± 0.11 | -0.898 ± 0.15 |
| CGGUAGCAAUAUUACGCUAC | -2.96 ± 0.47 | -2.93 ± 0.43 |
| AACUAGCAAUAUUACGCGGC | -3.01 ± 0.19 | -3.27 ± 0.22 |
| GCAGAGCAAUAUUACGGUGC | -2.67 ± 0.19 | -1.9 ± 0.24 |
| GAUAAGCAAUAUUACGAAGG | -2.27 ± 0.15 | -1.86 ± 0.2 |

| Sequence | self-splicing fitness (ln) (30 °C) | self-splicing fitness (ln) (37 °C) |
| --- | --- | --- |
| AAGGAGCAAUAUUACGGUUA | -2.54 ± 0.34 |  |
| AUUUAGCAAUAUUACGCAAU | -2.53 ± 0.2 | -1.86 ± 0.18 |
| CUCGAGCAAUAUUACGGGAG |  | -1.11 ± 0.22 |
| UGUUAGCAAUAUUACGCGAG | -3.15 ± 0.25 | -2.42 ± 0.19 |
| AUUGAGCAAUAUUACGGGUC | -3.34 ± 0.39 |  |
| CUGUAGCAAUAUUACGCCUC | -2.16 ± 0.4 |  |
| GGGUAGCAAUAUUACGCUAG |  | -1.24 ± 0.26 |
| GUUCAGCAAUAUUACGCGAC | -3.9 ± 0.29 | -1.22 ± 0.29 |
| GUCCAGCAAUAUUACGCGGA | -3.96 ± 0.25 | -4.4 ± 0.46 |
| ACUGAGCAAUAUUACGUAGG | -2.14 ± 0.14 | -1.27 ± 0.18 |
| ACUCAGCAAUAUUACGAUGG | -1.1 ± 0.063 | -0.87 ± 0.1 |
| GAAUAGCAAUAUUACGGGUG | -3.74 ± 0.15 | -1.03 ± 0.095 |
| UACCAGCAAUAUUACGCGAC | -3.1 ± 0.11 | -1.58 ± 0.12 |
| AUCUAGCAAUAUUACGCUCG | -0.792 ± 0.091 | -0.0276 ± 0.12 |
| UAGUAGCAAUAUUACGUCGU | -3.76 ± 0.38 | -2.81 ± 0.21 |
| CGACAGCAAUAUUACGUAAU | -3.73 ± 0.16 | -2.34 ± 0.15 |
| GACUAGCAAUAUUACGCUGA | -1.16 ± 0.14 | -0.638 ± 0.14 |
| CGCGAGCAAUAUUACGCCAU | -3.53 ± 0.24 | -3.92 ± 0.42 |
| GCCUAGCAAUAUUACGACCA | -1.08 ± 0.14 | -1.34 ± 0.13 |
| GCAUAGCAAUAUUACGAUAG | -3.12 ± 0.17 | -2.34 ± 0.2 |
| GGGCAGCAAUAUUACGAACC | -0.749 ± 0.29 | -0.806 ± 0.31 |
| GUUAAGCAAUAUUACGCAGG | -3.11 ± 0.38 | -2.47 ± 0.31 |
| CCGCAGCAAUAUUACGUUGA | -3.59 ± 0.16 | -3.41 ± 0.25 |
| AAGGAGCAAUAUUACGCCCA | -1.88 ± 0.27 | -1.46 ± 0.24 |
| GGUAAGCAAUAUUACGGUUC | -0.52 ± 0.16 | -0.621 ± 0.17 |

| Sequence | self-splicing fitness (ln) (30 °C) | self-splicing fitness (ln) (37 °C) |
| --- | --- | --- |
| UUUAAGCAAUAUUACGUCCG | -1.17 ± 0.22 | 0.606 ± 0.21 |
| GUAGAGCAAUAUUACGACCC | 0.536 ± 0.15 | 0.745 ± 0.18 |
| AGACAGCAAUAUUACGGAGG | -3.35 ± 0.18 | -2.48 ± 0.23 |
| CGCAAGCAAUAUUACGUGAC | -2.74 ± 0.2 | -2.5 ± 0.3 |
| ACGAAGCAAUAUUACGGUUA | -1.58 ± 0.095 | -0.445 ± 0.079 |
| AUAAAGCAAUAUUACGUGUG | -1.55 ± 0.061 | -0.947 ± 0.073 |
| UGGAAGCAAUAUUACGAGGG |  | -1.89 ± 0.34 |
| CGAUAGCAAUAUUACGAAGC |  | -1.1 ± 0.4 |
| AAUCAGCAAUAUUACGACGC | -0.394 ± 0.098 | -0.936 ± 0.11 |
| GUGCAGCAAUAUUACGCUCG | -0.5 ± 0.091 | -0.883 ± 0.13 |
| CGUGAGCAAUAUUACGAUGC | -0.111 ± 0.43 | -2 ± 0.48 |
| GCCAAGCAAUAUUACGCCAA | -2.4 ± 0.23 | -1.19 ± 0.15 |
| GCCAAGCAAUAUUACGGGUU | -2.48 ± 0.09 | -1.79 ± 0.1 |
| AUUGAGCAAUAUUACGAGUC | -4.1 ± 0.34 | -2.38 ± 0.35 |
| ACCAAGCAAUAUUACGCCGU | -3.18 ± 0.17 | -1.66 ± 0.15 |
| ACACAGCAAUAUUACGAGCA | -1.44 ± 0.12 | -1.45 ± 0.13 |
| GCGAAGCAAUAUUACGGAGA | -2.88 ± 0.26 | -2.87 ± 0.44 |
| CGUUAGCAAUAUUACGGAGA | -2.64 ± 0.4 | -1.53 ± 0.43 |
| GAUAAGCAAUAUUACGAGGA | -2.86 ± 0.29 | -2.12 ± 0.27 |
| UCGUAGCAAUAUUACGAUCU | -1.92 ± 0.3 | -1.67 ± 0.37 |
| AAGCAGCAAUAUUACGGGGA | -3.53 ± 0.33 | -1.11 ± 0.13 |
| GUCAAGCAAUAUUACGGAUG | -2.64 ± 0.12 | -0.795 ± 0.11 |
| AGGUAGCAAUAUUACGCCAU | -1.89 ± 0.021 | -0.939 ± 0.036 |
| AUUCAGCAAUAUUACGCCAU | -1.46 ± 0.1 | -1.09 ± 0.1 |
| CGAUAGCAAUAUUACGCGAA | -2.95 ± 0.21 | -1.92 ± 0.21 |

| Sequence | self-splicing fitness (ln) (30 °C) | self-splicing fitness (ln) (37 °C) |
| --- | --- | --- |
| CUUGAGCAAUAUUACGCAUU |  | -2.02 ± 0.35 |
| CUCUAGCAAUAUUACGAUCA | -2.28 ± 0.23 | -2.58 ± 0.33 |
| ACCCAGCAAUAUUACGAUAU | -1.72 ± 0.1 | -0.318 ± 0.11 |
| UAUCAGCAAUAUUACGUAAA | -0.89 ± 0.068 | 0.233 ± 0.1 |
| GUUCAGCAAUAUUACGCUCG | 0.167 ± 0.12 | 0.0872 ± 0.15 |
| GGAUAGCAAUAUUACGAGCU | -0.723 ± 0.19 | -0.744 ± 0.14 |
| GAGCAGCAAUAUUACGUAUG | -2.86 ± 0.14 | -2.5 ± 0.2 |
| UUACAGCAAUAUUACGGUAA | -2.33 ± 0.2 | -1.68 ± 0.17 |
| GGUAAGCAAUAUUACGGCAG | -3.62 ± 0.43 | -2.49 ± 0.45 |
| GUCCAGCAAUAUUACGAAGG | -1.34 ± 0.24 | -1.66 ± 0.28 |
| GACUAGCAAUAUUACGCGGG | -2.7 ± 0.22 | -1.75 ± 0.18 |
| GUAGAGCAAUAUUACGUUCC | -1.77 ± 0.14 | -0.881 ± 0.18 |
| AGAAAGCAAUAUUACGUUCA | -0.142 ± 0.084 | 0.14 ± 0.12 |
| UUGCAGCAAUAUUACGCAUC | -3.11 ± 0.22 | -3.18 ± 0.33 |
| UUCGAGCAAUAUUACGGUCU | -5 ± 0.38 | -5.45 ± 0.36 |
| CCUAAGCAAUAUUACGUUAG | -1.95 ± 0.11 | -2.03 ± 0.11 |
| GACUAGCAAUAUUACGGAUC | -0.87 ± 0.096 | -0.304 ± 0.14 |
| UAAGAGCAAUAUUACGGUAA | -2.55 ± 0.21 | -3.19 ± 0.28 |
| CCUAAGCAAUAUUACGGUGA | -3.89 ± 0.25 | -2.28 ± 0.16 |
| GUCUAGCAAUAUUACGUAAG | -1.02 ± 0.099 | -0.654 ± 0.13 |
| CUACAGCAAUAUUACGUAUA | -2.73 ± 0.2 | -1.13 ± 0.18 |
| UGCCAGCAAUAUUACGGAGU | -4.74 ± 0.27 | -1.34 ± 0.13 |
| AUCUAGCAAUAUUACGUCUU | -0.776 ± 0.077 | 0.147 ± 0.1 |
